Laboratory results reported in publication PMC5373496 (Science (New York, N.Y.), 2016).

Legend:
[1] = molecular target: T1, Cdc37 tagged at its N terminus with T4 lysozyme (human, UniProt Q16543 1-378); experiment: cryo-EM structure
T1 sequence (looked up): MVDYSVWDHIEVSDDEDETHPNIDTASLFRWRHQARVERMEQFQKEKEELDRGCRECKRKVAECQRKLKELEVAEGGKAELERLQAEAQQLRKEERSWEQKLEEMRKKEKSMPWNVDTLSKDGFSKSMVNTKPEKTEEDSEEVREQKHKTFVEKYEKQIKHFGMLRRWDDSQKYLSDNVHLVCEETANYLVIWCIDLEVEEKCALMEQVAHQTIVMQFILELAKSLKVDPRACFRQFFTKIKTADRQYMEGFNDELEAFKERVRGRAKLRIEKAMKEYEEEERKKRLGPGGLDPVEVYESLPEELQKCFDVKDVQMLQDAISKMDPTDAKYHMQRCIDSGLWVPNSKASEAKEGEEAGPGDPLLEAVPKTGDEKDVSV

[2] = molecular target: T2, Cdc37 of the yeast complex with T4 lysozyme-tagged Cdk4 (human, UniProt Q16543 1-378); experiment: cryo-EM structure
T2 sequence (looked up): T1 sequence (looked up)

B1: Cdk4 of the yeast complex with T4 lysozyme-tagged Cdc37 (natural protein, human, UniProt P11802 1-303, looked up)
chain: MATSRYEPVAEIGVGAYGTVYKARDPHSGHFVALKSVRVPNGGGGGGGLPISTVREVALLRRLEAFEHPNVVRLMDVCATSRTDREIKVTLVFEHVDQDLRTYLDKAPPPGLPAETIKDLMRQFLRGLDFLHANCIVHRDLKPENILVTSGGTVKLADFGLARIYSYQMALTPVVVTLWYRAPEVLLQSTYATPVDMWSVGCIFAEMFRRKPLFCGNSEADQLGKIFDLIGLPPEDDWPRDVSLPRGAFPPRGPRPVQSVVPEMEESGAQLLLEMLTFNPHKRISAFRALQHSYLHKDEGNPE
binding result [1]: binds

B2: Cdk4 tagged at its C terminus with T4 lysozyme (natural protein, human, UniProt P11802 1-303, looked up)
chain: B1 chain
binding result [2]: binds
